For the test, the target named is T1, PAPAP protein (human).
T1 construct: Identified by expression cloning; COS-1 cells transfected with the cDNA clone were stained by the AP fusion probe; also called PAPAP polypeptide; PAPAP gene product
Description: in situ receptor binding assay: AP staining of COS-1 cells transfected with human brain cDNA pools, incubated with PAP-AP fusion medium. How it is done:
Plasmid DNA was obtained from pools of ˜1000 colonies using the QiaPrep Spin Miniprep kit (Qiagen). These pools of DNA were then transiently transfected into COS-1 cells as follows. Two micrograms of DNA from each pool of human brain cDNAs was diluted into 200 ul of serum-free medium (DMEM medium from Gibco-BRL with no additives). The DNA was complexed to the PLUS reagent by adding 12 ul of (mixed prior to use) PLUS reagent to the DNA in serum-free medium. 200 ul of the DNA-PLUS-Lipofectamine reagent complexes was added to wells containing Cos-1 cells plated at 0.25×10⁵ cells per well in 6 well dishes (35 mm) the day prior to transfection (in complete medium containing no antibiotics). Previous to the addition of the DNA/lipofectamine/PLUS complex, the complete medium was removed from the cells and replaced with 800 ul serum-free medium. Cells were incubated at 37 degrees C. at 5% CO₂ for 3 hours; then the medium in each well was replaced with 2 ml of complete medium.
Two days after transfection, cell staining was begun. Culture medium was removed from cells in the 6 well dishes. […]

T1 sequence (chain, as listed by the source limits assumed): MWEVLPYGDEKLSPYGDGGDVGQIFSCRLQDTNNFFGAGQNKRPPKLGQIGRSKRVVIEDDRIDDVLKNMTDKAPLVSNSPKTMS

B1: g34872 peptide-alkaline phosphatase fusion protein (other)
chain: DAAQPARRARRTYEAYQPLERMWTCNYNQQKDQSCNHKEITSTKAERRSSGIIPVEEENPDFWNREAAEALGAAKKLQPAQTAAKNLIIFLGDGMGVSTVTAARILKGQKKDKLGPEIPLAMDRFPYVALSKTYNVDKHVPDSGATATAYLCGVKGNFQTIGLSAAARFNQCNTTRGNEVISVMNRAKKAGKSVGVVTTTRVQHASPAGTYAHTVNRNWYSDADVPASARQEGCQDIATQLISNMDIDVILGGGRKYMFPMGTPDPEYPDDYSQGGTRLDGKNLVQEWLAKRQGARYVWNRTELMQASLDPSVTHLMGLFEPGDMKYEIHRDSTLDPSLMEMTEAALRLLSRNPRGFFLFVEGGRIDHGHHESRAYRALTETIMFDDAIERAGQLTSEEDTLSLVTADHSHVFSFGGYPLRGSSIFGLAPGKARDRKAYTVLLYGNGPGYVLKDGARPDVTESESGSPEYRQQSAVPLDEETHAGEDVAVFARGPQAHLVHGVQEQTFIAHVMAFAACLEPYTACDLAPPAGTTDAAHPGYLEEALSLEGPEQKLISEEDLNSAVDHHHHHH
notes: Used as conditioned medium from stably transfected 293T cells; The vector has a secretion signal upstream of the insert; also called PAP-AP fusion protein; AP fusion protein
Turning to B1, the binding result is given as “binds”.

For the origin of these results see US20030148389A1 (SERONO GENETICS INSTITUTE S A, published 2003).
